{
  "source": "paper PMC4000578",
  "about": "(Molecular microbiology, 2014)",
  "proteins": {"B1": {"name": "BrlR-His6V5 (Biofilm resistance locus Regulator with a C-terminal His6V5-tag) (natural protein, Pseudomonas aeruginosa PAO1, UniProt Q9HUT5 1-270, looked up)", "chain": "MLTIGQLARIFEISTKTLRHYDAIGLFVPARTGSDNGYRYYQPEQIEQLSRILALRRLDVPLEAIDRLKRDGALDDPQRLRHFLQRHQHTLREEISARQRLLAELDRTLATLAHWRIRNMHARIVERPAFSVVGMEYFGSAPGDTIGQLWERFIPREHEIAGKHDPEVSYGICAQQPNGEFHYVAGFEVQEGWPVPEGMVRFQVPAQKYAVFTHKGTAPQIAESFQAIYSHLLAERGLEPKAGVDFEYYDQRFRGPLDPNSQVDLYIPIY"}},
  "molecular_target": "the molecule itself",
  "experiment": "cross-linking",
  "data": [
    {"protein": "B1", "values": [
      {"measurement": "stoichiometry N", "value": 2}
    ]}
  ]
}
